Reference: the supplement of paper PMC10567573

B1: ADD1 (parent)
chain: GEGTGSPPKWQIGEQEFEALMRML
B2: TMEM175 (parent)
chain: SCTIIFLASIFQLAMWTTALLHQA

Variants of: B1
Assay: protein stability index of a GFP-peptide fusion (GPS, HEK-293T) (PSI 1-6); higher = more stable
Conditions: c terminus: a fixed tail appended
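Note: lentivirally expressed fusions sorted by FACS into six bins by GFP to DsRed ratio, PSI derived from sequencing read proportions per bin multiplied by bin number.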

Protein stability index: each site, then its substitutions
E14: D 3.17, R 2.6, G 2.92, N 2.96, F 2.1, S 2.94, W 1.97, K 3.61, H 3.09, V 2.29, T 2.79, Q 3.19, M 2.72, L 2.3, Y 1.8, I 3.39, P 2.93, C 2, A 3.16
L20: Q 5.25, H 4.97, T 3.63, I 2.46, D 4.8, G 4.67, Y 3.97, A 4.61, K 4.4, R 4.19, P 4.45, W 3.61, F 3.07, V 3.48, N 4.89, S 5.12, E 4.77, C 4.05, M 3.64
R22: E 3.39, D 3.61, W 2.2, Q 3.3, F 2.79, T 3, P 3.75, C 2.21, M 2.55, Y 2.37, N 3.62, I 2.49, H 2.92, G 3.09, A 3.18, L 2.09, S 3.44, V 2.14
A19: G 3.22, L 2.85, Y 3.09, W 2.31, S 2.94, K 2.69, N 4.03, T 3.25, V 2.97, P 3.25, M 2.7, D 4.11, C 3.43, I 2.39, Q 3.65, H 3.65, F 2.67, E 4.04, R 3.59
Q15: L 2.22, D 3.48, P 3.51, R 2.59, S 3.13, Y 2.25, E 3.33, N 3.03, A 2.75, W 1.86, C 2.9, M 2.6, T 3.09, V 2.39, I 2.49, F 2.33, G 2.99, H 2.83, K 2.47
F17: D 4.82, Y 3.94, I 3.15, V 3.84, P 4.79, G 4.19, L 3.37, R 3.83, W 3.6, N 3.55, C 3.33, E 4.52, T 3.75, Q 4.76, H 4.32, M 3.52, A 3.92, K 3.88, S 4.28
G13: N 2.78, I 2.92, K 3.21, S 3.22, T 2.74, M 2.94, R 2.99, Q 3.58, W 3.37, Y 2.66, L 2.84, H 3.29, V 2.5, P 3.74
M23: V 3.43, N 4.8, R 4.26, H 3.1, K 4.49, S 4.68, E 5.04, P 4.76, G 4.56, Y 2.96, F 2.52, Q 4.44, C 3.74, T 3.38, D 5.08, L 2.74, A 3.58, I 2.16
E18: N 2.47, G 2.69, V 2.3, R 2.07, S 3.17, Q 3.22, T 3, D 3.69, F 1.93, K 2.9, P 3.39, H 2.1, W 1.85, Y 2.08, M 2.95, I 2.37, C 2.82, A 2.76, L 2.41
M21: V 3.11, G 3.87, H 4.16, D 4.41, F 3.47, R 3.18, W 2.83, C 3.18, I 2.99, Y 3.09, T 3.13, Q 3.83, P 4.2, A 3.35, E 4.16, L 2.82, S 3.66, N 3.71, K 3.49
E16: W 2.54, A 2.33, Y 1.71, H 2.8, Q 2.37, K 2.53, M 1.74, D 3.52, I 1.31, V 1.6, S 3.06, F 1.59, T 2.4, C 2.75, N 3.1, P 2.61, R 2.51, G 2.5, L 1.4
L24: Q 4.74, Y 2.68, A 3.83, W 3.57, C 3.52, S 3.92, N 4.13, T 3.8, V 3.06, K 4.67, P 4.38, I 3.52, M 3.89, R 4.34, G 4.1, E 4.98, F 3.42, H 4.32, D 4.89

Variants of: B2
Assay: as above
Conditions: c terminus: a fixed tail appended

Protein stability index: each site, then its substitutions
A8: F 3.99, Q 3.65, I 4.22, H 3.28, K 3.08, P 2.84, C 2.98, G 3.09, D 3.72, E 2.8, L 3.28, N 4.58
L7: E 2.34, N 3.78, D 4.13, V 3.55, A 4.52, R 3.25, I 3.83, F 1.87, Q 3.37, H 3.64, M 2.79, P 2.79, K 2.48, T 3.83, S 2.77, C 3.2, W 3.1, G 4.01
F6: Q 2.14, D 3.81, K 2.52, R 2.56, S 1.02, A 4.41, P 2.59, N 2.86, T 4.09, C 3.39, V 2.74, E 2.76
I5: A 2.65, G 2.33, H 3.05, V 1.82, P 2.58, R 1.6, M 3.44, L 1.46, K 2.92, N 2.28, T 2.35, F 2.81
S1: Y 1.75, M 2.14, A 2.72, C 3.31, N 2.02, H 2.8, D 2.62, E 1.31, G 2.3, Q 1.64, W 2.14, I 3.24, K 2.29, T 2.86, R 4.91, L 2.96
C2: K 3.34, W 2.26, F 2.66, H 3.33, G 3.98, V 3.64, E 2.64, Y 2.89, I 1.73, N 4.36, M 2.59, P 1.95, A 3.34, Q 2.54, D 3.24, R 2.3, L 2.87
I4: Y 2.23, T 2.72, H 3.04, G 2.7, A 3.22, F 2.9, K 3.01, N 3, V 2.35, W 2.14, P 4.19, D 3.54
T3: M 2.56, S 2.57, V 2.11, A 3.36, F 2.75, E 1.72, Q 3, H 2.04, I 3.33, L 2.92, W 3.07, D 2.86, Y 4.1, K 2.84
